The target in assay [1] is T1, human Nectin-4 extracellular antigen (Nectin-4-His) (Homo sapiens, UniProt Q96NY8).
T1 construct: albumin signal peptide (replaces the native Nectin-4 signal peptide) (N); made in house
T1 sequence (Q96NY8 with tags, fused parts or gaps): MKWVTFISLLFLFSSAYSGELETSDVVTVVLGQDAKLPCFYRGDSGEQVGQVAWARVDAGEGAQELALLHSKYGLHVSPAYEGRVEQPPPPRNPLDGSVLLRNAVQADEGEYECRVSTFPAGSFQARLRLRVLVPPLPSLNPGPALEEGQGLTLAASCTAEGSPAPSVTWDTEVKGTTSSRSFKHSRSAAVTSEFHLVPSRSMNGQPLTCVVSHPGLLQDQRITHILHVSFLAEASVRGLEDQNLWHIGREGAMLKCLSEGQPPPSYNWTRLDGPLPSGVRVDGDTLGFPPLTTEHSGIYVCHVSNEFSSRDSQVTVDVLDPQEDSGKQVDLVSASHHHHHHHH
Kind of assay: Affinity measurement by SPR (BIAcore T200, Protein A chip capture). It counts as binding. Conditions: 1:1 model fit. As for the experimental part: (§1) The candidate antibodies (ASG-22 and ASG-AM) were analyzed for their affinity for the human Nectin-4 extracellular antigen using surface plasmon resonance (SPR) technology (BIAcore: GE Healthcare, T200).
(§2) The capture was conducted on a Protein A chip (Cat #29127556, GE Healthcare): Antibody dilutions ([…]) were directed through the experimental flow channels (Fc2 and Fc4) at a flow rate of 10 μL/min for 10 s. Then antigen Nectin-4-His (prepared from Example 1) dilutions at different concentrations (0 nM, 1.23 nM, 3.7 nM, 11.1 nM, 33.3 nM, and 100 nM) were sequentially introduced with the flow rate adjusted to 30 μL/min through the surfaces of the experimental flow channels (Fc2 and Fc4) and reference flow channels (Fc1 and Fc3) with 120 s of association and 180 s of dissociation. Finally, the chip regenerated in Glycine 1.5. Fitting and analysis were performed using BiaEvaluation 3.2, with a 1:1 model for the fitting.
Background: SPR reads the build-up and loss of mass on a sensor chip optically.

The subject of assay [2] is T-47D cells. Briefly: Endocytosis assay by FACS (antibody remaining on cell surface). The class given is cell-based, human. Conditions: 10 μg/mL antibody. As to the method:
The relative quantity of antibodies remaining on the cell surface after incubation at 37° C. for a certain period was detected by FACS to reflect the efficiency of endocytosis. The method is briefly described as follows: T-47D cells (human ductal breast carcinoma cells, sourced from the Cell Bank of the Chinese Academy of Sciences, Cat. No.: TCHu 87) were used. Each test antibody was adjusted to a concentration of 10 μg/mL and co-incubated with cells (at a density of 0.5×10^6 cells/mL) on ice for 1 h for binding. The cells were washed thrice with pre-cooled PBS and then incubated at 37° C. for 0 h, 2 h, and 4 h. The endocytosis reaction was terminated with 0.2% N3Na, and the cells were washed thrice with PBS. Subsequently, a PE-labeled anti-human Fc secondary antibody (Invitrogen 12-4998-82) was added, and the cells were incubated at 4° C. for 30 min. The red fluorescence signal was detected by a flow cytometer.
On the technique in general: Flow cytometry measures light scatter and fluorescence of single cells or particles in a stream.

Assay [3] concerns T-47D cells. Kind of assay: Binding of antibody to T-47D cells by FACS. The arrangement: species or system human. Conditions: 3-fold dilutions from 100 nM, 4° C. As to the method: (§3) The binding activity of antibody ASG-AM to T-47D cells (human ductal breast carcinoma cells, sourced from the Cell Bank of the Chinese Academy of Sciences, Cat. No.: TCHu 87) was detected by FACS and compared with that of the reference antibody ASG-22. The EC50 of the binding of candidate antibodies to the cells was analyzed using the four-parameter method. The method is briefly described as follows: T-47D cells were digested with pancreatin. Each candidate antibody was serially 3-fold diluted from 100 nM and co-incubated with T-47D cells at 4° C. for 0.5-1 h. Subsequently, a PE-labeled anti-human Fc secondary antibody (Invitrogen, 12-4998-82) was added. The signal intensity of the red fluorescence was detected by a flow cytometer. Graphpad Prism was used for plotting and calculating the EC50.

Assay [4] deals with T1, human Nectin-4 extracellular antigen (Nectin-4-His). Kind of assay: Affinity measurement by BLI (Octet QKe, Protein A biosensor). The class given is binding. As to the method:
(§4) The affinity of candidate antibodies (ASG-22 and ASG-AM) for the human Nectin-4 extracellular antigen was detected using the bio-layer interferometry (BLI) technology on the Octet platform (Fortebio, Octet QKe).
(§5) Antibodies were loaded onto a Protein A biosensor (Fortebio, 18-5010) at a concentration of 20 μg/mL with a loading time of 60 s. Nectin-4-His antigen concentrations were set at 200 nM, 100 nM, 50 nM, 25 nM, and 0 nM. The antigen association time was 180 s, and the dissociation time was 200 s. Data were then processed and analyzed using Acquisition 8.2 to give affinity constants (see Table 4).
On the technique in general: Biolayer interferometry detects binding as a change in optical thickness at a sensor tip.

For assay [5], the target named is T2, Nectin-4 on T-47D cells (human ductal breast carcinoma cells) (human, UniProt Q96NY8 32-510).
T2 construct: whole, on cells; that is inferred from the antibodies' specificity
T2 sequence (looked up): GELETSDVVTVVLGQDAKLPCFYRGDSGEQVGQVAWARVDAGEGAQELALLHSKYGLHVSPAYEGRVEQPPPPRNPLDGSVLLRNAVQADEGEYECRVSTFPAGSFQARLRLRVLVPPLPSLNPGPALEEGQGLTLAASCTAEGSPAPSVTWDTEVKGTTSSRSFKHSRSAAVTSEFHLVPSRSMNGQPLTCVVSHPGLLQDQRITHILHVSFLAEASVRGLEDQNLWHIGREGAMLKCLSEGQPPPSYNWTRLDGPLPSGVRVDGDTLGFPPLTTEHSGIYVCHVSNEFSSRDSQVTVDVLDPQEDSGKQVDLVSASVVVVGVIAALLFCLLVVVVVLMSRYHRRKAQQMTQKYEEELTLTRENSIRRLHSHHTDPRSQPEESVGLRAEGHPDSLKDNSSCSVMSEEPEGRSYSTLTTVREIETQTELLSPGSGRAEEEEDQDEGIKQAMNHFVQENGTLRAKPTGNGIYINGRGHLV
Kind of assay: FACS on T-47D cells, antibody 3-fold diluted from 100 nM, PE-labeled anti-human Fc secondary antibody, four-parameter fit. As to the method:
as §3, with “EC₅₀” for “EC50”, “EC₅₀.” for “EC50.”

In assay [6] the target is T3, human Nectin-4 extracellular antigen Nectin-4-His (human, UniProt Q96NY8 32-349).
T3 construct: the secreted protein in the assay lacks the signal peptide
T3 sequence: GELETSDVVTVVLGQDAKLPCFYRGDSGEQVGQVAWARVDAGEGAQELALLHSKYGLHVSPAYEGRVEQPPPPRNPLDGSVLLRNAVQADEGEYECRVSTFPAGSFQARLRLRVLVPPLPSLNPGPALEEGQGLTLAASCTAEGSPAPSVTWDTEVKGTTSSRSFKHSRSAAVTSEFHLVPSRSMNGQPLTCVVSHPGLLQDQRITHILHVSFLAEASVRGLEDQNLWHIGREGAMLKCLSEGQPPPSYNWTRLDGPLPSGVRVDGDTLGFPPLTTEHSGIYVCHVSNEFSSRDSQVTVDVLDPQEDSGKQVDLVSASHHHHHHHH
Briefly: SPR (BIAcore T200), antibody captured on Protein A chip, Nectin-4-His as analyte, 1:1 fit. As for the experimental part: as §1, §2

Assay [7] deals with T3, human Nectin-4 extracellular antigen …. Briefly: BLI (Octet QKe), antibody loaded on Protein A biosensor, Nectin-4-His in solution. As for the experimental part: as §4, §5

Data on 3 molecules can be found in patent US20260008848A1, “ANTI-NECTIN-4 ANTIBODY, AND ANTIBODY-DRUG CONJUGATE AND USE THEREOF” (Bio-Thera Solutions, Ltd., priority 2022, published 2026).

Turning to “ASG-22: reference anti-Nectin-4 antibody; heavy chain SEQ ID NO: 12, light chain SEQ ID NO: 17 (Table 2) [reference compound]”, in assay [1], the Ka was determined as 606000 M⁻¹ s⁻¹ and the Rmax came out at 164.2 RU. Moreover, the Kd in assay [1] (dissociation rate) amounted to 0.00523 s⁻¹. In addition, the “red fluorescence signal at 0 h” value with T-47D cells [2] (37° C. for 0 h) is 24098.3. Besides, in the assay with T-47D cells [2] (37° C. for 2 h), the “Endocytosis at 2 h” value turned out to be 53.46% and the “red fluorescence signal at 2 h” value was determined as 11216.0. In the assay on T-47D cells [2] (37° C. for 4 h), the “Endocytosis at 4 h” value is 74.97% and the “red fluorescence signal at 4 h” value is 6033. In addition, the “binding curves to T-47D cells” value in the assay on T-47D cells [3] is recorded as “substantially consistent”. In assay [4], this molecule yielded an Rmax of 0.5303, a kdis of 0.00162 s⁻¹ and a kon of 113000 M⁻¹ s⁻¹.

B1: reference antibody ASG-22 (antibody, human IgG1, kappa, V domains shown)
VH: EVQLVESGGGLVQPGGSLRLSCAASGFTFSSYNMNWVRQAPGKGLEWVSYISSSSSTIYYADSVKGRFTISRDNAKNSLSLQMNSLRDEDTAVYYCARAYYYGMDVWGQGTLVTVSS
VL: DIQMTQSPSSVSASVGDRVTITCRASQGISGWLAWYQQKPGKAPKFLIYAASTLQSGVPSRFSGSGSGTDFTLTISSLQPEDFATYYCQQANSFPPTFGGGTKVEIKR
notes: Expressed in HEK293F cells
For B1, the response in assay [5] was half-maximal at 0.752 nM (EC50). In assay [6], this molecule yielded a Kd of 8.64 nM, an off-rate (koff) of 0.00523 s⁻¹ and a kon of 606000 M⁻¹ s⁻¹. In assay [7], this molecule yielded a Kd of 14.3 nM, a koff of 0.00162 s⁻¹ and a kon of 113000 M⁻¹ s⁻¹.

B2: anti-Nectin-4 antibody ASG-AM (antibody, human IgG1, kappa, V domains shown)
VH: B1 VH
VL: DIQMTQSPSSVSASVGDRVTITCRASQGISGWLAWYQQKPGKAPKFLIYAASTLQSGVPSRFSGSGSGTDFTLTISSLQPEDFATYYCQQAGPGWVFGQGTKVEIKR
notes: Expressed in HEK293F cells
In assay [5], B2 had an EC50 of 0.726 nM. In assay [6], this molecule came in with a Kd of 1.79 nM, a koff of 0.000535 s⁻¹ and a kon of 298000 M⁻¹ s⁻¹. In assay [7], this molecule yielded a Kd of 0.266 nM, a koff of 2.38e-05 s⁻¹ and a kon of 89600 M⁻¹ s⁻¹.

A word on the kon: it is the rate constant with which the complex forms. A lower kon goes with slow association. Broadly, the EC50 is the concentration giving half of the maximal effect. Lower therefore signals higher potency in that assay. As a reminder, the koff is a measure of how fast the partners let go of each other. Higher therefore signals fast dissociation.
